From the RNAGym collection of RNA variant scans (doi:10.7554/elife.80360) come the findings set out here.

To fix the notation:
B1: Twister Ribozyme (parent)
chain: AACACUGCCAAUGCCGGUCCCAAGCCCGGAUAAAAGUGGAGGGGGCGG

The variants in this data set derive from B1. Description: self-cleavage, relative activity (ratio to wild type); higher = more cleavage; co-transcriptional.
On to C8A G29A, for which the self-cleavage came out at 0.327.

Take C8A G29U: the self-cleavage stood at 0.295. Regarding C8A G29C, the self-cleavage was determined as 0.0825. The same measure for C9A G17A: 0.109; for C8G A22C: 0.437. For the variant C9G C15G, the self-cleavage came to 0.0512. C9G C15A: the self-cleavage amounted to 0.278.

Turning to C9A G47A, the self-cleavage is 0.336. Turning to C9A G47U, the self-cleavage amounted to 0.244.

Take C9A G47C: the self-cleavage came to 0.221. As to C9U G42A, the self-cleavage turned out to be 0.153. For C9G C14G, the self-cleavage came out at 0.0866.

Regarding C9G C46A, the self-cleavage was 0.376.

For C9G C46U, the self-cleavage turned out to be 0.609. The same measure for C9A C19U: 0.197; for C8U A33U: 0.531. Regarding C8U A33G, the self-cleavage is 0.25. On to C8U A33C, for which the self-cleavage was 0.447. To C9A G45U belongs 0.232; to C8G A23C, 0.0689.

As for C9G C20G, the self-cleavage worked out at 0.0438. The same measure for C9G C20A: 0.0864; for C8U U31C: 0.713; for C8A C27G: 0.0579. The same measure for C8A C27A: 0.0935. To C9U C14A belongs 0.56. C9U C14U: the self-cleavage is 0.596.

As to C9G G43U, the self-cleavage was determined as 0.134. C9G A10G: the self-cleavage was determined as 0.656. In the case of C9G A10U, the self-cleavage came out at 0.859. To C9G A10C belongs 0.857; to C9G G17A, 0.103; to C9U C27U, 0.37. To C9U C27G belongs 0.0911.

Take C8A C20U: the self-cleavage is 0.0847. On to C8A C20A, for which the self-cleavage worked out at 0.0847. To C9A G39C belongs 0.119; to C9G G48U, 0.377.

For the variant C9U G36C, the self-cleavage amounted to 0.12. As for C9G C21A, the self-cleavage was found to be 0.0451. For the variant C9U G41C, the self-cleavage is 0.128. For the variant C8G G24U, the self-cleavage was 0.747. For the variant C8U G13C, the self-cleavage worked out at 0.121. As for C8U G13A, the self-cleavage worked out at 0.342. The same measure for C9G G41A: 0.168. To C9U A22C belongs 0.779; to C9U A22U, 0.313; to C9U A22G, 0.0671. For C9A G44U, the self-cleavage stood at 0.544. The same measure for C8U A30U: 0.662; for C8U C21G: 0.0658. C8U C21U: the self-cleavage was 0.0732. The same measure for C8G C20U: 0.0992; for C9G G45A: 0.444; for C8U C27U: 0.288. The same measure for C8U C27G: 0.0565; for C8U C27A: 0.0891.

As for C9G A33G, the self-cleavage was 0.548. For C9G A33C, the self-cleavage came out at 0.548.

Consider C9G A33U, for which the self-cleavage amounted to 0.689.

As to C8U G38C, the self-cleavage is 0.644. In the case of C8A C25A, the self-cleavage was 0.0389. The same measure for C9U C20A: 0.0526.

On to C9U C20G, for which the self-cleavage came out at 0.0672. To C9U C20U belongs 0.264; to C8A G38A, 0.343. On to C8A G38C, for which the self-cleavage is 0.161. C8A G44C: the self-cleavage was found to be 0.276. To C8A G44U belongs 0.271. The same measure for C9A G42U: 0.149; for C9A G42A: 0.149. To C8G G16C belongs 0.0753; to C8G G16A, 0.061; to C9G A11U, 0.985. For the variant C9G A11G, the self-cleavage is 0.715. As for C8G A11U, the self-cleavage amounted to 0.691. To C8G A11C belongs 0.55. As for C8A U31A, the self-cleavage came to 0.433. Turning to C8A U31C, the self-cleavage turned out to be 0.652. The same measure for C9G A40G: 0.109. The same measure for C9G A40U: 0.151; for C9G A40C: 0.102.

C8G C21U: the self-cleavage was found to be 0.0624. For the variant C8G C21A, the self-cleavage came out at 0.041. The same measure for C9U G43U: 0.126. On to C9U G43A, for which the self-cleavage is 0.137.

Consider C8G G43U, for which the self-cleavage stood at 0.148. The same measure for C8G G43A: 0.137; for C8G G43C: 0.139; for C9G G28A: 0.512.

C9G G28C: the self-cleavage is 0.495. Take C9G G28U: the self-cleavage amounted to 0.428. To C8U C9U belongs 0.0747.

Turning to C8U C9G, the self-cleavage turned out to be 0.158. To C9U C21A belongs 0.0683.

C9G A34C: the self-cleavage was 0.134.

In the case of C9G A34G, the self-cleavage came out at 0.238. In the case of C9G G44A, the self-cleavage came to 0.731. To C9G G44U belongs 0.427; to C8G A40G, 0.146. As for C9G A32C, the self-cleavage turned out to be 0.195. In the case of C9G A32G, the self-cleavage came to 0.731. To C9U C25G belongs 0.113. In the case of C9G G38U, the self-cleavage was 0.387.

For the variant C9A G41U, the self-cleavage was determined as 0.179. For C9U C46U, the self-cleavage turned out to be 0.729. The same measure for C8G C14U: 0.625; for C8U U37G: 0.382; for C8A G17A: 0.12. To C8A G17U belongs 0.0971; to C8A G17C, 0.0615. On to C9U G47U, for which the self-cleavage is 0.269.

In the case of C9U G47A, the self-cleavage came to 0.425. In the case of C9A C46G, the self-cleavage came out at 0.59.

For the variant C8A G36U, the self-cleavage was 0.108. C9G G39U: the self-cleavage worked out at 0.147.

For C9G G39A, the self-cleavage came out at 0.137. The same measure for C8G C27A: 0.0513; for C8G C27U: 0.14. C8A G24A: the self-cleavage is 0.18. The same measure for C8G G13A: 0.405.

For C8G G13C, the self-cleavage was 0.0604. To C9A A33C belongs 0.603.

As for C9U U18A, the self-cleavage was determined as 0.0726.

For the variant C9U U18G, the self-cleavage came to 0.059. Regarding C9U U18C, the self-cleavage came out at 0.0748. To C9A G36A belongs 0.178; to C9A G36U, 0.0953. As to C8A C14U, the self-cleavage was 0.597. To C8A C14A belongs 0.529.

With C8A C14G, the self-cleavage was 0.0608. To C9A G16U belongs 0.254; to C9G G16U, 0.346; to C8A G41U, 0.146. To C8A G41C belongs 0.124; to C8G G36U, 0.11; to C8G G36A, 0.129. C9U G17C: the self-cleavage was found to be 0.0426. Take C9U G17U: the self-cleavage came out at 0.102. Consider C8U A32C, for which the self-cleavage was determined as 0.733. Turning to C8G C26G, the self-cleavage is 0.12. Consider C9G A23C, for which the self-cleavage turned out to be 0.0567.

Take C8G G28C: the self-cleavage was 0.083. Turning to C8G G28U, the self-cleavage stood at 0.0873.

On to C8A G13C, for which the self-cleavage came out at 0.0783.

Take C9G U12A: the self-cleavage is 0.968. The same measure for C8G A10G: 0.592; for C8G A10C: 0.872. To C8G C19U belongs 0.113; to C8G C46A, 0.231.

With C8G C46G, the self-cleavage is 0.344. The same measure for C8A G45A: 0.203. To C8A G45C belongs 0.141; to C8A G45U, 0.176.

As for C9A G29C, the self-cleavage came out at 0.307.

As for C9A G29U, the self-cleavage worked out at 0.686. The same measure for C9A G29A: 0.627; for C9A C25A: 0.0586.

With C8U A23C, the self-cleavage is 0.0653. The same measure for C9U G24U: 0.0861; for C8U A35U: 0.756. To C8U A35C belongs 0.547; to C8G G38A, 0.325. The same measure for C9A A11U: 0.767; for C9A A11C: 1.03; for C9A A11G: 0.735.

Regarding C8U G44U, the self-cleavage is 0.603.
